Where two headings read alike, the source gives them in different places. No end group written: not given here.
Tests used:
Conditions in all cases: modification not given
[1] = molecular target: T1, Furin (recombinant, truncated) (mouse), P23188
T1 chain: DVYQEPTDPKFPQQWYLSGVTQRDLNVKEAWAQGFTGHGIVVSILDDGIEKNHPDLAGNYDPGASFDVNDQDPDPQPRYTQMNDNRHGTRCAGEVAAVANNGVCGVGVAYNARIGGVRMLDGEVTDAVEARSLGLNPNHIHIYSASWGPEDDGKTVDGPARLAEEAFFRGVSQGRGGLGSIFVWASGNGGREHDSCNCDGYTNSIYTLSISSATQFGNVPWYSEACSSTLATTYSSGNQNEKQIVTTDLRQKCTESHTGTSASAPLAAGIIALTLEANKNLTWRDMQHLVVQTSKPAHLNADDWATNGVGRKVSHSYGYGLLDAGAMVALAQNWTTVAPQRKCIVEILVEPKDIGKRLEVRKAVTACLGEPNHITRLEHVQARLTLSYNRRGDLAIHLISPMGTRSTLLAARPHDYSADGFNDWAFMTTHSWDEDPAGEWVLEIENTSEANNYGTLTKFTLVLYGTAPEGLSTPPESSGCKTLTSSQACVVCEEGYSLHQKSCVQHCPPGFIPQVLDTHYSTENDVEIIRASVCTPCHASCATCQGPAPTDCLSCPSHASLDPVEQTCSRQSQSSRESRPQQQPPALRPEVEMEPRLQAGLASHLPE

PC2, P16519 [2] = molecular target: T2, PC2, P16519
T2 chain: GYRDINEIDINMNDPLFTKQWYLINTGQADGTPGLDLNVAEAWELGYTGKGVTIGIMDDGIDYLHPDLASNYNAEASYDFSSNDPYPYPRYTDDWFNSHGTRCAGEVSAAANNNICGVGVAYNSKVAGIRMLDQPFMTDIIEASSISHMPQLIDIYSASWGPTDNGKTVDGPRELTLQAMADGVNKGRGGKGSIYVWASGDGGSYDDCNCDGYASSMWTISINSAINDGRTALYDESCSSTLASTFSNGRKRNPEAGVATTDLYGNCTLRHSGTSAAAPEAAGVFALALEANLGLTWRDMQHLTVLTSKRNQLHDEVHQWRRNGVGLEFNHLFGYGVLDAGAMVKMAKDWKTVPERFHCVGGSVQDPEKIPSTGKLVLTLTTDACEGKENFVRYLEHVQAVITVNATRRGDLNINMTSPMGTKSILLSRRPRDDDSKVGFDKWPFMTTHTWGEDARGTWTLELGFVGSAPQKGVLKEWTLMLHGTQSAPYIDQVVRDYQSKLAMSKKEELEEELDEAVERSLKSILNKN

[3] = molecular target: T1, Furin (recombinant, truncated) (mouse), …
PC2, P16519 [4] = molecular target: T2, PC2, P16519
[5] = molecular target: T1, Furin (recombinant, truncated) (mouse), …
PACE4, P29122 [6] = molecular target: T3, PACE4, P29122
T3 chain: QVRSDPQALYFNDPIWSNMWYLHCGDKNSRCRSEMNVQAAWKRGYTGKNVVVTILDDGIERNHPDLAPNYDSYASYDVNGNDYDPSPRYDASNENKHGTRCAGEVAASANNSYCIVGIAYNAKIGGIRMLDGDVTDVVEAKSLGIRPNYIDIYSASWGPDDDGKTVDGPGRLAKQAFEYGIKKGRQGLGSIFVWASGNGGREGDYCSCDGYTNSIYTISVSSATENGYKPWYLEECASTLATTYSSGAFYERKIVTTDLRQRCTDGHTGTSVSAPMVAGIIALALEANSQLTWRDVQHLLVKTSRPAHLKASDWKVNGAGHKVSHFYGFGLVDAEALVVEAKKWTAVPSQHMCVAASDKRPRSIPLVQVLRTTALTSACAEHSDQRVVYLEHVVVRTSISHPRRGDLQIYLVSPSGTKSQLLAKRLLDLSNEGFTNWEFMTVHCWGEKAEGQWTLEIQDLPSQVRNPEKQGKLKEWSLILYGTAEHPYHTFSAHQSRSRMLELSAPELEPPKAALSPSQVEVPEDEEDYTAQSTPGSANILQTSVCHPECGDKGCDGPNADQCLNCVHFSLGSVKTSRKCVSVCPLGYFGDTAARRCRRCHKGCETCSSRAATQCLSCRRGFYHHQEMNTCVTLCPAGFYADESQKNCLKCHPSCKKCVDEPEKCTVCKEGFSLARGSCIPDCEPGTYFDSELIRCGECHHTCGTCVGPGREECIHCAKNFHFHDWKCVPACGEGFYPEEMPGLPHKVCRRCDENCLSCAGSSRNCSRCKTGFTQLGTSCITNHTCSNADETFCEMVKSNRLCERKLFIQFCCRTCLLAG

PC1, P29120 [7] = molecular target: T4, PC1, P29120
T4 chain: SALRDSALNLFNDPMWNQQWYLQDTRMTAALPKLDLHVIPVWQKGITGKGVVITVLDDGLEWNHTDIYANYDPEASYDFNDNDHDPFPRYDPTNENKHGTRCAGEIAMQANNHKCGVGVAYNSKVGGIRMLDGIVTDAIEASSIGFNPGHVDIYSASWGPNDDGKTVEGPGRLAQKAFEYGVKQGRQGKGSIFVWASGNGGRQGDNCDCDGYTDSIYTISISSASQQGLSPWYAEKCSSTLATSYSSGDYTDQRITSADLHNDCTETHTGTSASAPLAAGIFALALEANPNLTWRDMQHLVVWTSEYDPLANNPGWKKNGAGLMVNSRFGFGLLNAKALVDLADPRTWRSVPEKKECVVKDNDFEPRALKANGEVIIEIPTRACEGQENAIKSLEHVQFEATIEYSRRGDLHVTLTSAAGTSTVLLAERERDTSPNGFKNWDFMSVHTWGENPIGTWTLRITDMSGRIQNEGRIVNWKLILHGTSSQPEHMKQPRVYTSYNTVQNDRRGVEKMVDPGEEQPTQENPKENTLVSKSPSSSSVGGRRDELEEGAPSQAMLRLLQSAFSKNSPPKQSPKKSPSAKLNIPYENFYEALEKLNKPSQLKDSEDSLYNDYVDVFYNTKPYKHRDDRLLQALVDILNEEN

[8] = molecular target: T1, Furin (recombinant, truncated) (mouse), …
PC2, P16519 [9] = molecular target: T2, PC2, P16519
PACE4, P29122 [10] = molecular target: T3, PACE4, P29122
[11] = molecular target: T1, Furin (recombinant, truncated) (mouse), …
PC1, P29120 [12] = molecular target: T4, PC1, P29120
[13] = molecular target: T1, Furin (recombinant, truncated) (mouse), …
PACE4, P29122 [14] = molecular target: T3, PACE4, P29122
PC1, P29120 [15] = molecular target: T4, PC1, P29120
[16] = molecular target: T1, Furin (recombinant, truncated) (mouse), …
PC2, P16519 [17] = molecular target: T2, PC2, P16519
[18] = molecular target: T1, Furin (recombinant, truncated) (mouse), …
PC2, P16519 [19] = molecular target: T2, PC2, P16519
PC7, Q16549 = molecular target: T5, PC7, Q16549
T5 chain: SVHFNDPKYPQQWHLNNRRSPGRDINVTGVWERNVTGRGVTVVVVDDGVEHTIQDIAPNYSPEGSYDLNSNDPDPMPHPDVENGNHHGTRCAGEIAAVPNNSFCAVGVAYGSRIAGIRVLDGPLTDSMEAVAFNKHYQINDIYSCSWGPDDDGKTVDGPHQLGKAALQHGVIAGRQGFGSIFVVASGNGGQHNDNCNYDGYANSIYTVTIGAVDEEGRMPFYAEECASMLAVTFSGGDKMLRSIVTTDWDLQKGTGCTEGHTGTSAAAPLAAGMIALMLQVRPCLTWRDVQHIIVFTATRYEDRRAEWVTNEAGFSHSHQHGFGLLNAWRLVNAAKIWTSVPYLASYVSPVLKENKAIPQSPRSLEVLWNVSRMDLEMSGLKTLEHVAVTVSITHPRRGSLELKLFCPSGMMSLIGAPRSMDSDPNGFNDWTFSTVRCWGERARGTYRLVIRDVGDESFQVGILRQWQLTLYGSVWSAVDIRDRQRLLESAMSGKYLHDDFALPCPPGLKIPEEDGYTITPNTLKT

B1: Ac-HHKRRR-NH2 (peptide)
chain: Ac-HHKRRR-NH2
- Ki [1]: 13.2 µM
- Ki (PC2, P16519 [2]): 235 µM

B2: Ac-MHKRRR-NH2 (peptide)
chain: Ac-MHKRRR-NH2
- Ki [3]: 10.3 µM
- Ki (PC2, P16519 [4]): 216 µM

B3: Hexa-L-arginine (peptide)
chain: RRRRRR
- Ki [5]: 0.114 µM
- Ki (PACE4, P29122 [6]): 0.52 µM
- Ki (PC1, P29120 [7]): 3.9 µM

B4: LLRVKR (peptide)
chain: LLRVKR
- Ki [8]: 0.42 µM
- Ki (PC2, P16519 [9]): 3.7 µM

B5: Tetra-L-arginine (peptide)
chain: RRRR
- Ki (PACE4, P29122 [10]): > 200 µM
- Ki [11]: 6.4 µM
- Ki (PC1, P29120 [12]): > 200 µM

B6: Hepta-L-arginine (peptide)
chain: RRRRRRR
- Ki [13]: 0.068 µM
- Ki (PACE4, P29122 [14]): 0.24 µM
- Ki (PC1, P29120 [15]): 5.2 µM

B7: LLRVKR-NH2 (peptide)
chain: LLRVKR-NH2
- Ki [16]: 0.8 µM
- Ki (PC2, P16519 [17]): 2.3 µM

B8: Ac-MRKRRR-NH2 (peptide)
chain: Ac-MRKRRR-NH2
- Ki [18]: 2.3 µM
- Ki (PC2, P16519 [19]): 1500 µM

B9: Furin propeptide fragment (peptide)
chain: QQVAKRRTKR
- Ki (PC7, Q16549): 0.5 µM
